Measured values published in patent publication US20260061042A1, “POLYNUCLEOTIDE COMPOSITIONS AND USES THEREOF” (Pfizer Inc., priority 2024, published 2026).
Changes are numbered by the printed parent chain. Names and notes keep the numbering of the source. “Also recorded” adds a separate entry of the source.

B1: BMD576_PapG-DSF K172A_Thy1-GPI: monovalent PapG modRNA LNP; RNA construct SEQ ID NO: 66 (nucleic acid)
chain: AGGAGGACUGGUCGAACCUGCAUAGUGAUCAUAAGGUCAGCAUAGCCACCAUGGAGACCGACACCCUCCUGCUGUGGGUGCUGUUACUGUGGGUGCCCGGUAGCACCGGCUGGAACAACAUCGUGUUCUACAGCCUGGGCAACGUGAACAGCUACCAAGGCGGCAACGUGGUGAUCACACAGAGACCUCAGUUCAUCACAAGCUGGAGACCCGGCAUCGCCACCGUGACCUGGAAUCAGUGCAACGGCCCCGAGUUCGCCGACGGCAGCUGGGCCUACUACAGAGAGUACAUCGCCUGGGUGGUGUUCCCCAAGAAGGUGAUGACCAAGAACGGCUACCCCCUGUUCAUCGAGGUGCACAACAAGGGCAGCUGGAGCGAGGAGAACACCGGCGACAGCGACAGCUACUUCUUCCUGAAGGGCUACAAGUGGGACGAGAGAGCCUUCGACGCCGGCAACCUGUGUCAGAAGCCGGGGGAGACCACAAGACUUACCGAGAAGUUCAACGACAUCAUCUUCAAGGUGGCCCUGCCCGCCGACCUGCCCCUGGGCGACUACAGCGUGACCAUCCCCUACACAAGCGGCAUUCAGAGACACUUCGCUAGCUACCUGGGCGCUAGAUUCGCCAUCCCCUACAACGUGGCCAAGACCCUGCCUAGAGAGAACGAGAUGCUGUUCCUGUUCAAGAACAUCGGCGGCUGCAGACCUAGCGCUCAGAGCCUGGAGAUCAAGCACGGCGACCUGAGCAUCAACAGCGCCAACAACCACUACGCCGCUCAGACCCUGAGCGUGAGCUGCGACGUGCCCGCCAACAUCAGAUUCAUGCUGCUGAGAUCAACCACCCCCACCUACAGCCACGGCAAGAAGUUCAGCGUGGGCCUGGGCCACGGCUGGGACAGCAUCGUGAGCGUGAACGGCGUGGACACGGGCGAGACCACUAUGCGUUGGUACAAGGCCGGCACACAGAGCCUGACCAUCGGCAGCAGACUGUAUGGCGAAAGCUCCAAAAUCCAACCCGGCGUGCUGUCGGGGAGCGCCACCCUGCUGAUGAUACUGCCCGGAGGCAGCAGCGGCGGCGCCGACGUGCAGAUCAACAUCAGAGGCAACGUGUAUAUUCCGCCUAGCAGUGGUGGUGGGGGUAGCUCCGGCUCCGGAAGCAGCUGCGAGGGCAUCAGCCUGCUGGCUCAGAACACAAGCUGGCUGCUGCUGCUGCUGCUGAGCCUGAGCCUGCUGCAAGCCACCGACUUCAUGAGCCUGUGAUGAGCUCGCUUUCUUGCUGUCCAAUUUCUAUUAAAGGUUCCUUUGUUCCCUAAGUCCAACUACUAAACUGGGGGAUAUUAUGAAGGGCCUUGAGCAUCUGGAUUCUGCCUAAUAAAAAACAUUUAUUUUCAUUGCAAAAAAAAAAAAAAAAAAAAAAAAAAAAAAAAAAAAAAAAAAAAAAAAAAAAAAAAAAAAAAAAAAAAAAAAAAAAAAAAAA
modifications: modRNA in LNP
B2: PapG^LD N96S G104A: PapG lectin domain N96S with G104A ligand binding site mutation; SEQ ID NO: 16 (protein)
chain: METDTLLLWVLLLWVPGSTGWNNIVFYSLGNVNSYQGGNVVITQRPQFITSWRPGIATVTWNQCNGPEFADGSWAYYREYIAWVVFPKKVMTKNGYPLFIEVHNKGSWSEENTGDSDSYFFLKAYKWDERAFDAGNLCQKPGETTRLTEKFNDIIFKVALPADLPLGDYSVTIPYTSGIQRHFASYLGARFKIPYNVAKTLPRENEMLFLFKNIGG
B3: PapG^LD N96S G122A: PapG lectin domain N96S with G122A putative conformation stabilizing mutation; SEQ ID NO: 20 (protein)
chain: B2 chain with A124G, G142A
B4: PapG^LD N96S WTv1: WT PapG lectin domain (V1, first PapG operon), N96S removes non-native glycosylation, His-tagged; SEQ ID NO: 13 (protein)
chain: B2 chain with A124G
modifications: His tag
B5: PapG^DSF N96S N242S N286S: Full-length donor strand complemented PapG, fully aglycosylated at N96S, N242S and N286S, His-tagged (protein)
chain: WNNIVFYSLGNVNSYQGGNVVITQRPQFITSWRPGIATVTWNQCNGPEFADGSWAYYREYIAWVVFPKKVMTKNGYPLFIEVHNKGSWSEENTGDSDSYFFLKGYKWDERAFDAGNLCQKPGETTRLTEKFNDIIFKVALPADLPLGDYSVTIPYTSGIQRHFASYLGARFKIPYNVAKTLPRENEMLFLFKNIGGCRPSAQSLEIKHGDLSINSANNHYAAQTLSVSCDVPANIRFMLLRSTTPTYSHGKKFSVGLGHGWDSIVSVNGVDTGETTMRWYKAGTQSLTIGSRLYGESSKIQPGVLSGSATLLMILPGGSSGGADVQINIRGNVYIPP

Tests used:
[1] = test system: E. coli strain CFT073 expressing the fimbrial adhesin PapG; experiment: PapG hemagglutination inhibition (HAI) assay on sera of mice immunized with PapG modRNA LNPs; format: in vivo; settings: 1 μg, 50 μl IM
Source text: Escherichia coli to the uroepithelium of human kidney. The PapG lectin binds to the globoside (GbO4) glycolipid, which is enriched in urinary tract tissue and consists of the tetrasacharide GalNAcβ1-3Galα1-4Galβ1-4Glc linked to ceramide. Here we present the use of a hemagglutination inhibition assay (HAI) to determine vaccine functional responses to protein subunit PapG or mRNA-expressed PapG antigens. In this assay the agglutination of human red blood cells (hRBCs) expressing GbO4 is caused by live E. coli CFT073 bacteria expressing PapG. The HAI assay measures the ability of PapG-elicited antibodies to prevent hRBC agglutination, exemplifying inhibition of the key bacterial adherence mechanism leading to clinical pyelonephritis. The assay was used to characterize the functional activity of PapG monoclonal antibodies (mAbs) raised against a PapG lectin domain subunit antigen. PapG HAI data from a mouse immunogenicity study are described that evaluated various 5 monovalent PapG modRNA LNPs and a PapG subunit comparator.
In this mouse study immunogenicity of different PapG mRNA constructs were evaluated. […]
iii. PapG Hemagglutination Inhibition Assay (HAI) 1. Preparation of Single Use Frozen E. coli CFT073 Banks Frozen bacterial stocks for use in the PapG HAI are stored at a concentration of ˜15 OD/mL. For stock preparation, take 6 ×100 μL of frozen parental strain CFT073 glycerol stock to seed six overnight cultures with ˜85 mL Luria's Broth (LB) each in 250 mL vented flasks. Flasks are shaken at 200 rpm and 37° C. overnight. On the same day, prepare 100 mL LB media with 30% glycerol and 0.4% sucrose by mixing […] 80% Glycerol with 0.8 mL 50% Sucrose in 64 mL LB and pre-chill at 4° C. After ˜16 h growth, determine the OD600 nm of each flask with the SpectraMax M5e plate reader by adding 100 μL culture to 900 μL LB (1:10 dilution). After reading the OD600, harvest cells by pelleting in a centrifuge at 4,000g, 4° C., for 30 minute. Determine the total OD of each of the six flasks, by multiplying the volume by OD/mL of each flask and divide by 15 OD to give the appropriate pellet resuspension volume. Discard supernatants and resuspend all pellets in the pre-chilled LB cryopreservant containing 30% glycerol and 0.4% sucrose, with a final volume as calculated above. Pool all resuspended pellets and mix gently, then aliquot into 1 mL/cryotube, and freeze at −70° C.
2. Preparing 10% hRBC Working Solution From Stock
Gently mix human red blood cells (hRBC) bottle (Rockland) by rocking ˜20×times, pipet out 10 mL of the hRBCs into a 15 ml conical tube. Centrifuge at 2,000 rpm(˜990×g) for 10 minutes and 4° C. Aspirate and discard the supernatant, then resuspend the pellet with 9 mL 4° C. PBS. The packed hRBCs in 15 mL conical tube should constitute roughly 1 mL of this total volume. Store these 10% hRBCs at 4° C. until use. […]
iv. PapG Hemagglutination Inhibition (HAI) Assay
The PapG hemagglutination inhibition (HAI) assay uses human red blood cells (hRBCs), which naturally express the PapG ligand GbO4 (globotetraosyl ceramide) on the cell surface, and the E. coli strain CFT073 expressing the fimbrial adhesin PapG. Upon mixing bacteria with hRBCs, […] cells remain suspended (presenting as a cloudy well), while no binding results in the red blood cells falling out of solution towards the center of the well (observed as pellet).
The total final well volume is 100 μL, with serum dilutions comprising 25 μL of this volume, strain CFT073 cells in […] volume, and hRBCs in a 50 μL volume. The assay plate is a V-bottom plate to which 25 μL 4° C. PBS is initially added to all wells. The positive control wells receive an additional 25 μL 4° C. PBS. The no-serum negative control consists of E. coli CFT073 cells plus hRBCs only (resulting agglutinated well appears cloudy). To accommodate pre-diluted sera transferred from the serum Master Dilution plate (MDP) an extra 5 μL 4° C. PBS is added to wells in Row A of the assay plate (columns 1 to 12). […]

[2] = PapG Luminex ligand binding assay with globoside GbO4; settings: result in words
Method: 9. PapG Ligand Binding Assay with Globoside GbO4
To determine the ability of PapGLD mutants to bind the porcine derived globotetraosyl ceramide ligand GalNAc-Gal-Gal-Glc-ceramide (GbO4), a Luminex ligand binding assay was developed. Surfactant Protein-A (SP-A) was coupled to the surface of MagPlex beads by EDC/NHS, to capture the lipid tail of the globotetraosyl ceramide. The Globotetraosyl ceramide/SP-A beads were incubated with an eight-point threefold titration of PapG in a 96 well flat bottom white plate with final volume of 100 microliters of 50 mM HEPES PH 7.4, 10 mM NaCl, 0.0005% Tween 20 shaking at 300 rpm, 4° C. overnight. After 20-24 hours the ligand binding plates were read on a FlexMap 3D plate reader for measurement of well-bead region specific MFI. Ligand binding equilibrium dissociation constants (Kd) were calculated assuming one site specific binding and interpolated using non-linear curve fitting (GraphPad Prism) as the ligand concentration needed to achieve half-maximal binding. The Luminex derived apparent Kd values are based on approximately fifty bead counts per assay sample.
Binding of PapG proteins to GbO2 or GbO4 ligands was evaluated using a Luminex platform wherein ligands were coupled to MagPlex beads via surfactant protein A (for […]) or directly using […] conjugation (for […]). This assay was used to rank order binding affinities of the mutants, reported as Kd values interpolated from protein antigen titration curves (Table 7).

[3] = Thermal shift (SYPRO orange) melting temperature, apo form; format: physicochemical; settings: apo state, PBS pH 7.4
Method: PapG proteins were added to assay buffer (consisting of 4% DMSO, 1:1000 dilution of SYPRO orange (Invitrogen S6650) in PBS pH 7.4) at a final concentration of […]. Melt curves were analyzed in a QuantStudio 6 Real-time PCR system (ThermoFisher) using a dissociation protocol from 25° C. to 99° C., at 0.05° C./second. ROX was specified as the reporter.
The thermal stability of PapG WT and mutant proteins were determined using a SYPRO orange thermal shift-based differential scanning fluorimetry assay, wherein Tm designates the temperature at which 50% of the protein is unfolded. Non-covalent ligands often stabilize protein targets upon specific binding, resulting in an increase in protein melting temperature. Tm were therefore determined in the presence and absence of GbO3 for PapG, and the difference in Tm (ΔTm) of protein in the presence of ligand relative to the apo form was calculated.

Molecule	Step Titer GMT (HAI) ([1]; weeks 0, 4, bleed week 6, GMT of individual titers)	Step Titer Pool (HAI) ([1]; weeks 0, 4, bleed week 6, serum pool)	binding to GbO4 ligand [2]	Tm (Ave.) [3]
B1	85,681	81,000	–	–
B2	–	–	prevent binding to GbO4; also recorded: lower the binding affinity; also recorded: eliminate ligand binding	64.54 °C
B3	–	–	reduced binding	–
B4	–	–	–	61.29 °C
B5	–	–	–	61.82 °C
